Assay results published in paper PMC9666628 (Nature Communications, 2022).
Several values for one entry are separate records, joined by “and”; a condition that tells them apart may be missing. Identical values can stand only once.

T1: Cbx7.V1 back-mutant I10V (human, UniProt O95931 7-66, E8D (printed as the back-mutation D8E) | Q9D | K33E | P37L (printed as the …))
T1 construct: chromodomain of human Cbx7, variant V1 with residue 10 put back to the wild type; residues numbered on full-length Cbx7; Tags probably still on the protein in BLI (removal is told for FP and ITC only); source: E. coli BL21(DE3), purified (Ni-NTA)
T1 sequence: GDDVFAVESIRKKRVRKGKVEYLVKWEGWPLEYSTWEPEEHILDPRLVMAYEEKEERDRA

T2: Cbx7.V1 back-mutant E38K (human, UniProt O95931 7-66, E8D (printed as the back-mutation D8E) | Q9D | V10I (printed as the …))
T2 construct: chromodomain of human Cbx7, variant V1 with residue 38 put back to the wild type; residues numbered on full-length Cbx7; Tags probably still on the protein in BLI (removal is told for FP and ITC only); source: E. coli BL21(DE3), purified (Ni-NTA)
T2 sequence: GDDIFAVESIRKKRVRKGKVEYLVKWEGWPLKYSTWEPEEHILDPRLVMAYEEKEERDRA

T3: Cbx7.V1 back-mutant E33K (human, UniProt O95931 7-66, E8D (printed as the back-mutation D8E) | Q9D | V10I (printed as the …))
T3 construct: chromodomain of human Cbx7, variant V1 with residue 33 put back to the wild type; residues numbered on full-length Cbx7; Tags probably still on the protein in BLI (removal is told for FP and ITC only); source: E. coli BL21(DE3), purified (Ni-NTA)
T3 sequence: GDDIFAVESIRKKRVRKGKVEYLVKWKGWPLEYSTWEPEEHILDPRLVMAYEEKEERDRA

T4: Cbx7.V1 back-mutant L37P (human, UniProt O95931 7-66, E8D (printed as the back-mutation D8E) | Q9D | V10I (printed as the …))
T4 construct: chromodomain of human Cbx7, variant V1 with residue 37 put back to the wild type; residues numbered on full-length Cbx7; Tags probably still on the protein in BLI (removal is told for FP and ITC only); source: E. coli BL21(DE3), purified (Ni-NTA)
T4 sequence: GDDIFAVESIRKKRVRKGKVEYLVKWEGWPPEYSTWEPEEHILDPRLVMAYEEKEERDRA

T5: Cbx7.V1 chromodomain variant (protein used for BLI) (human, UniProt O95931 7-66, E8D (printed as the back-mutation D8E) | Q9D | V10I (printed as the …))
T5 construct: chromodomain of human Cbx7 with the six substitutions of the phage-selected variant V1; residues numbered on full-length Cbx7; for BLI they were probably still on the protein; source: E. coli BL21(DE3), purified (Ni-NTA)
T5 sequence: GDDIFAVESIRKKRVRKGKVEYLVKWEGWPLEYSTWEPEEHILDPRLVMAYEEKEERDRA

T6: Cbx7.V1 back-mutant D8E (human, UniProt O95931 7-66, Q9D | V10I (printed as the back-mutation I10V) | K33E | P37L (printed as the …))
T6 construct: chromodomain of human Cbx7, variant V1 with residue 8 put back to the wild type; residues numbered on full-length Cbx7; Tags probably still on the protein in BLI (removal is told for FP and ITC only); source: E. coli BL21(DE3), purified (Ni-NTA)
T6 sequence: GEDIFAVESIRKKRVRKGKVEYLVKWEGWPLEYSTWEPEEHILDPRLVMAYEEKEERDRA

T7: Cbx7 chromodomain with the double substitution Q9D/K33E (human, UniProt O95931 7-66, Q9D | K33E)
T7 construct: chromodomain of human Cbx7; residues numbered on full-length Cbx7; also called Cbx7.VD; source: E. coli BL21(DE3), purified (Ni-NTA), tags removed with TEV protease
T7 sequence: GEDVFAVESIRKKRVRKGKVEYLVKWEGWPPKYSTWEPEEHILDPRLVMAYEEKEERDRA

T8: wild-type Cbx7 chromodomain (human, UniProt O95931 7-66)
T8 construct: chromodomain of human Cbx7; also called Cbx7.wt; source: E. coli BL21(DE3), purified (Ni-NTA), tags removed with TEV protease
T8 sequence: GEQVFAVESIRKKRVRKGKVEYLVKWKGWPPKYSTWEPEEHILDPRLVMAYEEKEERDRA

T9: Cbx7 chromodomain Q9D (human, UniProt O95931 7-66, Q9D)
T9 construct: chromodomain of human Cbx7; residues numbered on full-length Cbx7; also called Cbx7 Q9D; source: E. coli BL21(DE3), purified (Ni-NTA), tags removed with TEV protease
T9 sequence: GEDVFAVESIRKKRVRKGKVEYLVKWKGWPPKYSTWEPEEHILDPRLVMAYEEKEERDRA

T10: Cbx7.V1 chromodomain variant (tags removed, used for FP) (human, UniProt O95931 7-66, E8D (printed as the back-mutation D8E) | Q9D | V10I (printed as the …))
T10 construct: chromodomain of human Cbx7 with the six substitutions of the phage-selected variant V1; residues numbered on full-length Cbx7; source: E. coli BL21(DE3), purified (Ni-NTA), tags removed with TEV protease
T10 sequence: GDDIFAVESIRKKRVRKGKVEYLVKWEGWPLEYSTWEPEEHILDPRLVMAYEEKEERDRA

T11: Cbx7 chromodomain K33E (human, UniProt O95931 7-66, K33E)
T11 construct: chromodomain of human Cbx7; residues numbered on full-length Cbx7; also called Cbx7 K33E; source: E. coli BL21(DE3), purified (Ni-NTA), tags removed with TEV protease
T11 sequence: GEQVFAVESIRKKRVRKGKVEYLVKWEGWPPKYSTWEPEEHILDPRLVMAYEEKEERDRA

T12: wild-type Cbx2 chromodomain (human, UniProt Q14781 9-62)
T12 construct: chromodomain of human Cbx2; also called Cbx2.wt; source: E. coli BL21(DE3), purified (Ni-NTA), tags removed with TEV protease
T12 sequence: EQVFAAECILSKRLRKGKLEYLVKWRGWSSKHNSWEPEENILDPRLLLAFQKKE


Tests used:
Details in all cases: both partners purified
Cbx7.V1 back-mutant I10V = target: T1, Cbx7.V1 back-mutant I10V; assay: BLI; biotinylated peptide on streptavidin biosensor tips, chromodomain in solution at 5 or 1 µM; 25 °C; 25 mM HEPES pH 7.0, 150 mM NaCl, 1 mg/ml BSA, 0.01% Tween-20; steady-state fit, Langmuir model; values of single replicates
Cbx7.V1 back-mutant E38K = target: T2, Cbx7.V1 back-mutant E38K; assay: as above
Cbx7.V1 back-mutant E33K = target: T3, Cbx7.V1 back-mutant E33K; assay: as above
Cbx7.V1 back-mutant L37P = target: T4, Cbx7.V1 back-mutant L37P; assay: as above
[1] = target: T5, Cbx7.V1 chromodomain variant (protein …); assay: as above
Cbx7.V1 back-mutant D8E = target: T6, Cbx7.V1 back-mutant D8E; assay: as above
[2] = target: T7, Cbx7 chromodomain with the double …; assay: fluorescence polarisation; 0.5 nM FITC-labeled peptide, chromodomain serially diluted (wild types 200-0.2 µM; Cbx7.V1 and Cbx.VDs 50 µM-50 nM); 25 °C, 30 min; 25 mM HEPES pH 7.5, 150 mM NaCl, 1 mM DTT, 0.01% TritonX-100; one-site total binding model; values of single replicates
[3] = target: T8, wild-type Cbx7 chromodomain; assay: as above
[4] = target: T13, wild-type Cbx1 chromodomain (human, UniProt P83916 20-73); assay: as above
T13 construct: chromodomain of human Cbx1; also called Cbx1.wt; source: E. coli BL21(DE3), purified (Ni-NTA), tags removed with TEV protease

[5] = target: T14, wild-type Cbx5 chromodomain (human, UniProt P45973 18-75); assay: as above
T14 construct: chromodomain of human Cbx5; also called Cbx5.wt; source: E. coli BL21(DE3), purified (Ni-NTA), tags removed with TEV protease

Cbx7 chromodomain Q9D = target: T9, Cbx7 chromodomain Q9D; assay: as above
[6] = target: T7, Cbx7 chromodomain with the double …; assay: as above; remark: listed apart in the source
[7] = target: T8, wild-type Cbx7 chromodomain; assay: as above; remark: listed apart in the source
[8] = target: T10, Cbx7.V1 chromodomain variant (tags …); assay: as above
Cbx7 chromodomain K33E = target: T11, Cbx7 chromodomain K33E; assay: as above
[9] = target: T12, wild-type Cbx2 chromodomain; assay: as above

T14 sequence (P45973 18-75, looked up): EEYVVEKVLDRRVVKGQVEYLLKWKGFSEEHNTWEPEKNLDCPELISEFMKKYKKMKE
T13 sequence (P83916 20-73, looked up): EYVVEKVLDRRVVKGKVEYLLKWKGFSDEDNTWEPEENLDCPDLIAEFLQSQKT

Row | Binder | Kd (Cbx7.V1 back-mutant I10V) | Kd (Cbx7.V1 back-mutant E38K) | Kd (Cbx7.V1 back-mutant E33K) | Kd (Cbx7.V1 back-mutant L37P) | Kd [1] | Kd (Cbx7.V1 back-mutant D8E) | Kd [2] | Kd [3] | Kd [4] | Kd [5] | Kd (Cbx7 chromodomain Q9D) | Kd [6] | Kd [7] | Kd [8] | Kd (Cbx7 chromodomain K33E) | Kd [9]
1 | ARTKQTARKSTGGKAPR (trimethyl-lysine at K9; biotin followed by an aminohexanoic acid linker at the N-terminus) [H3K9me3 peptide, biotinylated] | 4 µM and 3 µM | 1.9 µM and 2.1 µM | 8.5 µM and 12 µM | 2.7 µM and 3.3 µM | 4.9 µM and 4.2 µM | 5.3 µM and 4.7 µM | – | – | – | – | – | – | – | – | – | –
2 | ARTKQTARKSTGGKAPR (trimethyl-lysine at K9; fluorescein isothiocyanate (FITC) at the N-terminus) [H3K9me3 peptide, FITC-labeled] | – | – | – | – | – | – | 8.6 µM and 7.5 µM | 33.5 µM and 37 µM and 23 µM | 0.453 µM and 0.543 µM and 0.529 µM | 5.6 µM and 5 µM and 4.8 µM | 11 µM and 9.7 µM and 9.4 µM | 8.4 µM and 7.4 µM and 8.2 µM | 41 µM and 27 µM and 23 µM | 7.5 µM and 5.7 µM and 7.8 µM | 24 µM and 18 µM and 19 µM | –
3 | KQLATKAARKSAPATGGVK (trimethyl-lysine at K27; fluorescein isothiocyanate (FITC) at the N-terminus) [H3K27me3 peptide, FITC-labeled] | – | – | – | – | – | – | 4.8 µM and 5.2 µM | 138 µM and 84 µM and 109 µM | – | – | 115 µM and 101 µM and 84 µM | 5.1 µM and 4.7 µM and 5.2 µM | 115 µM and 79 µM and 143 µM | 4.5 µM and 3.9 µM and 3.4 µM | 17.5 µM and 21 µM and 19 µM | 117 µM and 101 µM and 84 µM
